Source: patent US20220031803A1, “ANTIBACTERIAL COMPOSITION COMPRISING MICROCIN S AND ANTIBIOTIC” (priority 2017, published 2022)

Test system: E. coli BL21 (DE3)+kan^R
Assay type: cell-based, Escherichia coli
Settings: OD600 growth curve, 37° C., 96-well plates, duplicates averaged
Procedure: Growth was determined by measurement of the optical density at 600 nm (OD600) for 18 hours in 96-well plates at 37° C. The profile of the OD600 curves corresponds to the bacterial growth. […] Each sample was prepared in duplicate and the results averaged.
Antimicrobial activity was investigated in a 96-well plate by incubating E. coli BL21 (DE3)+kan^R bacteria either with microcin S alone or with microcin S and an antibiotic at 37° C. for 18 h.
To investigate whether microcin S in combination with antibiotics can likewise achieve synergistic effects on sensitive bacteria, growth profiles of the microcin S-sensitive indicator strain Escherichia coli BL21 (DE3) provided with a kanamycin resistance gene are recorded photometrically in a microtitre plate of 96-well format. […] After loading with the individual samples, the microtitre plate is incubated directly in a photometer (Epoch2 microplate reader from Biotek, USA) at 37° C. and 200 rpm (double-orbital, ∞) for 15 h. The optical density at 600 nm wavelength (OD600) is measured simultaneously for all wells at regular intervals. The graphic evaluation of the recorded measurement points is done subsequently with the aid of Microsoft Excel (Microsoft Corporation, USA). […]

B1: Microcin S: Antimicrobial polypeptide of E. coli G3/10 (SEQ ID NO: 7), prepared in a cell-free E. coli based in vitro expression system (protein, listed as Escherichia coli)
chain: NANSNYEGGGSRSRNTGARNSLGRNAPTHIYSDPSTVKCANAVFSGMVGGAIKGGPVGMTRGTIGGAVIGQCLSGGGNGNGGGNRAGSSNCSGSNVGGTCSR
Time of incubation after which the antibacterial effect is observed (collapse of bacterial growth): 5 h
